# B1: tHN of BoNT/A1 (beltless translocation domain of botulinum neurotoxin A1, residues K547–K871) (domain or fragment)
# chain: KYTMFHYLRAQEFEHGKSRIALTNSVNEALLNPSRVYTFFSSDYVKKVNKATEAAMFLGWVEQLVYDFTDETSEVSTTDKIADITIIIPYIGPALNIGNMLYKDDFVGALIFSGAVILLEFIPEIAIPVLGTFALVSYIANKVLTVQTIDNALSKRNEKWDEVYKYIVTNWLAKVNTQIDLIRKKMKEALENQAEATKAIINYQYNQYTEEEKNNINFNIDDLSSKLNESINKAMININKFLNQCSVSYLMNSMIPYGVKRLEDFDASLKDALLKYIYDNRGTLIGQVDRLKDKVNNTLSTDIPFQLSKYVDNQRLLSTFTEYIK
# Target: the molecule itself
# Experiment: SEC; […] (~2.7–27 μM), […] (pH 4.4–5.6); […]
protein,measurement,value
B1,binding result,binds

# Reference: publication PMC6299077 (Nature Communications, 2018)
